Measured values published in patent US20200247855A1 (published 2020).
Numbering of substitutions follows the chain as printed.

Legend:
CXCL9_HUMAN = biological target: T1, CXCL9_HUMAN (human, UniProt Q07325 23-125); assay: YSD FACS
T1 sequence: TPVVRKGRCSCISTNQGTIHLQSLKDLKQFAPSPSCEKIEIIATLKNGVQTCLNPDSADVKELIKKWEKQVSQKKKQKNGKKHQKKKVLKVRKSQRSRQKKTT

CXCL12_HUMAN = CXCL12_HUMAN (human, UniProt P48061 22-89); assay: YSD FACS
P985_AMBPA = biological target: T2, P985_AMBPA (Amblyomma parvum, UniProt A0A023FT45 25-132); assay: BLI
T2 construct: His-tagged in BLI
T2 sequence: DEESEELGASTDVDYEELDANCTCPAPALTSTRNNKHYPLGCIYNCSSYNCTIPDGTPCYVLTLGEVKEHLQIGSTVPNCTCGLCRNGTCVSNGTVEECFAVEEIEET

P991_AMBCA = biological target: T3, P991_AMBCA (Amblyomma cajennense, UniProt A0A023FFD0 29-136); assay: BLI
T3 construct: His-tagged in BLI
T3 sequence: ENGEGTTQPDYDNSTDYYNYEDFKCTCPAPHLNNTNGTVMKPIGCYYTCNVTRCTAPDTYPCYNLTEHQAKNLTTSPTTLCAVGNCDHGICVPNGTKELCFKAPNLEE

CXCL8_HUMAN = biological target: T4, CXCL8_HUMAN (human, UniProt P10145 28-99); assay: YSD
T4 sequence: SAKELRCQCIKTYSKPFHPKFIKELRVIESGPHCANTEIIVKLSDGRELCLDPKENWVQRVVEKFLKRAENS

CXCL10_HUMAN [1] = biological target: T5, CXCL10_HUMAN (human, UniProt P02778 22-98); assay: YSD FACS
T5 sequence: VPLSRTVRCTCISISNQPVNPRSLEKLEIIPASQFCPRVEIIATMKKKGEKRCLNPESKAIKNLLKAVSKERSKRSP

CCL25_HUMAN = biological target: T6, CCL25_HUMAN (human, UniProt O15444 24-150); assay: YSD
T6 sequence: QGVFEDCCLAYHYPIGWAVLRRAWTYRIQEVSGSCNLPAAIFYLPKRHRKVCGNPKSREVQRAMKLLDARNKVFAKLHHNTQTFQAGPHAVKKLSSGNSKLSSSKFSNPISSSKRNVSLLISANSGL

CXCL10_HUMAN [2] = biological target: T5, CXCL10_HUMAN; assay: YSD
P546_AMBCA = biological target: T7, P546_AMBCA (Amblyomma cajennense, UniProt A0A023FBW7 22-118); assay: BLI
T7 construct: His-tagged in BLI
T7 sequence: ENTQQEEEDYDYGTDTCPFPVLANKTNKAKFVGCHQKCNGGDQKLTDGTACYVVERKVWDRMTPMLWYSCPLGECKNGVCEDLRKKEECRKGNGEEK

P974_AMBCA = biological target: T8, P974_AMBCA (Amblyomma cajennense, UniProt A0A023FDY8 22-118); assay: BLI
T8 construct: His-tagged in BLI
T8 sequence: T7 sequence with E8Q, S69E, E88D

P672_RHIPU = biological target: T9, P672_RHIPU (Rhipicephalus pulchellus, UniProt L7MC74 22-125); assay: BLI
T9 sequence: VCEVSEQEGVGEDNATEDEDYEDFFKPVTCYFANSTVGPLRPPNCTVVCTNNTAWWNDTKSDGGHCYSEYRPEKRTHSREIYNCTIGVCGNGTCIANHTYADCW

Sequence of CXCL12_HUMAN (P48061 22-89 limits assumed): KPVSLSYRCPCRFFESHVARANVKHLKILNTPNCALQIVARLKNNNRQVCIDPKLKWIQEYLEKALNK

B1: P1100_IXORI (other)
chain: GSKGSSASQSSDNSVVAKFCDTNCTINEGGKWTECKGGCFCVHVGNETVGRCMKLDGDYDYPSPKPEE
notes: yeast surface display
- % cells over threshold fluorescence (CXCL9_HUMAN): 55%

B2: P458_IXORI (other)
chain: GSKQPGAAGSSSDSVEAVFCPTNCTKGTNGAWSGCSDDCICVHVGENTEGSCMKFSGDYDYPTPEA
notes: yeast surface display
- % cells over threshold fluorescence (CXCL9_HUMAN): 37%

B3: P1095_IXORI (other)
chain: HSPVAGSEVQKLTSDPNDDIDVSYCGMNCTVVNGKSDECSENCKCLHEGDDPKGICVAITYFGDWGDPNDDPKINEATPQTQIFEKKRK
notes: yeast surface display
- % cells over threshold fluorescence (CXCL12_HUMAN): 47%

B4: P1080_IXORI (other)
chain: SAGSKGSSAPQSSGDSVVAEFCDTNCTMKKDGKWTECNGDCFCVHVGNETVGRCMRLDGDYDYTSSKTTRRNKKTRNGLCRLDRNRTTVDYPERNTREP
notes: yeast surface display
- % cells over threshold fluorescence (CXCL9_HUMAN): 49%
- % cells over threshold fluorescence (CXCL12_HUMAN): 53%

B5: CCL24_HUMAN (ligand)
chain: VVIPSPCCMFFVSKRIPENRVVSYQLSSRSTCLKAGVIFTTKKGQQFCGDPKQEWVQRYMKNLDAKQKKASPRARAVA
- Kd (P985_AMBPA): 41 nM
- Kd (P991_AMBCA): 6.54 nM

B6: P1030_AMBPA (other)
chain: GPPSIPGNESIPGCGDAGTTTAPEDNPKHYGTLTDKKGCTLPIIGTWMTAVDHQHLQGTRGERRGPTGKVNLPASCRKNCHGRQEILRDGIPCRKVVGNPKGSKKHLKSGCLRGKCLAGQCVNDGRRISCYVPRNITDTEPTPGLLAE
notes: yeast surface display
- binding result (CXCL8_HUMAN): binds

B7: P1134_IXORI (other)
chain: NEEVFTVEYCGMNCTQKSDGTWTECSGKNKDCRCYHESDAREGLCLSTEYTDFSQFETPSNSDLEAATPRPRKTLYPVRNPHGPKTRGLGYDKRILRDRVKFLI
notes: yeast surface display
- % cells over threshold fluorescence (CXCL10_HUMAN [1]): 66%

B8: P1124_IXORI (other)
chain: DSKGTSDSQDSTKSIKVDFCETNCTKTDGGWTGCTGDCICVSVGDSIEGRCMDFG
notes: yeast surface display
- % cells over threshold fluorescence (CXCL9_HUMAN): 31%

B9: P1220_IXORI (other)
chain: GSTPSAMKTEDILKVLGSTSSLENHTDSSHCRYQELLDITKNIENAGFLAINCQRSCPNGKQTMVEGYGCIFKIKHATKRGKVKVKEGSCRKGACVRGSTRPPWRLLVLLGESKEEEFL
notes: yeast surface display
- binding result (CCL25_HUMAN): binds

B10: P1086_IXORI (other)
chain: GSKGQRASQVSETSITAEFCDTSCTQGTDKTWSGCSGDCFCVHVGNDTEGRCMRWDGDYPSAEEEE
notes: yeast surface display
- % cells over threshold fluorescence (CXCL9_HUMAN): 54%

B11: P1283_IXORI (other)
chain: KEPEDTTLPPGALVDSPDSDNCSSPHLPYFDETTNMWMGFLAVNCTKKCPVGKHVTVVDGNKCIGTWSFLDELTITVLVGSCKDGFCETDGSSECRNITLAEEDSQEEEGAAAEEEDEEDEEDEEEEEAEEEREDDHDDA
notes: yeast surface display
- binding result (CXCL10_HUMAN [2]): binds

B12: P1219_IXORI (other)
chain: ASLAKETEDTTLPARALVDSPDSDNCSSPQLPYFDELTYMPLGFLAVNCTKTCPVGKNGTVVNGNKCIVTWSILDVSTITVLVGSCKNGYCISDGSSECRNITLAGEDSQEEEEEAEEDEEEDDGDEEEDEEEDEEENDDD
notes: yeast surface display
- binding result (CXCL10_HUMAN [2]): binds

B13: CCL22_HUMAN (ligand)
chain: GPYGANMEDSVCCRDYVRYRLPLRVVKHFYWTSDSCPRPGVVLLTFRDKEICADPRVPWVKMILNKLSQ
- Kd (P546_AMBCA): 27 nM
- Kd (P974_AMBCA): 16.5 nM
- Kd (P991_AMBCA): 3.97 nM

B14: P993_AMBPA (other)
chain: HRHYDPNEPCLIAGLKTPRDALPAGCRYDCMIKKNQKLRDGLLCLDVPEKVVKRMVNYLNYSCPLGTCRKGICKRKHRNVRCQKYPVFYMSPPK
notes: yeast surface display
- binding result (CXCL8_HUMAN): binds

B15: CCL27_HUMAN (ligand)
chain: FLLPPSTACCTQLYRKPLSDKLLRKVIQVELQEADGDCHLQAFVLHLAQRSICIHPQNPSLSQWFEHQERKLHGTLPKLNFGMLRKMG
- Kd (P991_AMBCA): 38.9 nM

B16: P1074_IXORI (other)
chain: GSKESSAHQSSDDSIKAEFCDAKCTMKTDGKWTQCHGGCFCVHVGNETEGRCMRLDGDYDYPSTQPEE
notes: yeast surface display
- % cells over threshold fluorescence (CXCL9_HUMAN): 35%

B17: CCL23_HUMAN (ligand)
chain: RVTKDAETEFMMSKLPLENPVLLDRFHATSADCCISYTPRSIPCSLLESYFETNSECSKPGVIFLTKKGRRFCANPSDKQVQVCMRMLKLDTRIKTRKN
- Kd (P672_RHIPU): 10 nM
- Kd (P991_AMBCA): 5.58 nM

B18: P1224_IXORI (other)
chain: SDLCKMEAESSPFKLPQSSLLDAPDEEGCKYQLLFVEAEGPLVVNCTKDCPNGKIRTVVEGELCIAMVKTSSSGEATGLVGSCKRGSCVKKDDPCRTFTLSEEGDDDEEDEEEEEDEEEDEEEDEEEEEEDEEEED
notes: yeast surface display
- binding result (CXCL10_HUMAN [2]): binds

B19: P1096_IXORI (other)
chain: HTTVTGSVEGKPNNPNEDIEVSYCRMNCTVENGVSSACSGDCVCVHRDNEPNGICVEITYFGDFGDPSQDPSIDEAAPRESVSKRRSNGES
notes: yeast surface display
- % cells over threshold fluorescence (CXCL10_HUMAN [1]): 50%

B20: P1126_AMBCA (other)
chain: KPQILQRTDKSTDSEWDPQTCPETCIPSKNITCSDGCVCVKLGEEEEGTCFNMTGVDWLGSPSDD
notes: yeast surface display
- % cells over threshold fluorescence (CXCL9_HUMAN): 56%
